# Measurements published in patent US20220204580A1 (AstraZeneca / MedImmune, published 2022).
# Numbered stars: 1 amine (or outer) side, 2 acyl side, 3 side chain; on linkers, the order of the positions; unused ones are H or OH. Bridge positions count the residues as written; N and C are the ends. Square brackets hold non-standard residues; d marks the D form. Side chains are listed from the residue outwards. Ends that are not written are not given here. * marks the point of attachment. C20 diacid = O=C(O)CCCCCCCCCCCCCCCCCCC(=O)*; C18 diacid = O=C(O)CCCCCCCCCCCCCCCCC(=O)*; γGlu = O=C(O)[C@H](CCC(=O)[*:2])N[*:1]; αMeF = C[C@](N)(Cc1ccccc1)C(=O)O; Aib = CC(C)(N)C(=O)O
# T1: human amylin receptor (calcitonin receptor co-expressed with receptor activity modifying protein, RAMP3) (human, UniProt P30988 25-474; O60896 24-148)
# T1 sequence (looked up) 1: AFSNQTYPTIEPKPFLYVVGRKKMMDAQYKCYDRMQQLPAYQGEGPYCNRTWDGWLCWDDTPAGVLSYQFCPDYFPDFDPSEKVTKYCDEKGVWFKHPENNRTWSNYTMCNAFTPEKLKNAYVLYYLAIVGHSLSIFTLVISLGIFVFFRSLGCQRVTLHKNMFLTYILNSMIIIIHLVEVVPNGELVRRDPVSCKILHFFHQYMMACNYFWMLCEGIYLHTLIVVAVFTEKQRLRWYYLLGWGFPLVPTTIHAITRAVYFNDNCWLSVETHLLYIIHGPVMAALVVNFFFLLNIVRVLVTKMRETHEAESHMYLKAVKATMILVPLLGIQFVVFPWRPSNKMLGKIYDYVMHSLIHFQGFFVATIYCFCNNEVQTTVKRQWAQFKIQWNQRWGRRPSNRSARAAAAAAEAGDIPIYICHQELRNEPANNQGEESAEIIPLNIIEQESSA
# T1 sequence (looked up) 2: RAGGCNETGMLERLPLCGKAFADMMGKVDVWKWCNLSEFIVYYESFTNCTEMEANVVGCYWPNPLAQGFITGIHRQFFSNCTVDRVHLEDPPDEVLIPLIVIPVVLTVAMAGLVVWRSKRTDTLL
# T2: human calcitonin receptor (human, UniProt P30988 25-474)
# T2 sequence (looked up): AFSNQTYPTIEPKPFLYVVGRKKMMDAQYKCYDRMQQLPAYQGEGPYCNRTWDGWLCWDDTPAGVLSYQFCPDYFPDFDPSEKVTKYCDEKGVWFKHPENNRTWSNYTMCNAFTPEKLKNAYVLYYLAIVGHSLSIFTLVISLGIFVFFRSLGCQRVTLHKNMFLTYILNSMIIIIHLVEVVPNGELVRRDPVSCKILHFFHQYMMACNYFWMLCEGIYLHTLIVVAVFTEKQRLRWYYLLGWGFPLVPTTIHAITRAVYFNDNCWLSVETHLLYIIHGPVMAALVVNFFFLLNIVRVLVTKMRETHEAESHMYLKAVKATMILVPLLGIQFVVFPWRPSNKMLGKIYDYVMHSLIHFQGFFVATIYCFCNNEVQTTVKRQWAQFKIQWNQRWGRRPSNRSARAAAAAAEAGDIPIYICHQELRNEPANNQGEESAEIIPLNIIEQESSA
# How the values were obtained:
# [1] = biological target: T1, human amylin receptor (calcitonin …); assay: cell-based or functional assay
# [2] = biological target: T2, human calcitonin receptor; assay: cell-based or functional assay
Binder,EC50 (cAMP production) [1] [nM],Ratio (EC50 hCTR / EC50 hAMYR3) [1],EC50 (cAMP production) [2] [nM]
K([γGlu-C18 diacid])KCNTATCATQRLANFLVHSSNNF[Aib]PILPPTNVGSNTY-NH2 (disulfide 3-8; N-terminus assumed; SMILES CC[C@H](C)[C@H](NC(=O)[C@@H]1CCCN1C(=O)C(C)(C)NC(=O)[C@H](Cc1ccccc1)NC(=O)[C@H](CC(N)=O)NC(=O)[C@H](CC(N)=O)NC(=O)[C@H](CO)NC(=O)[C@H](CO)NC(=O)[C@H](Cc1c[nH]cn1)NC(=O)[C@@H](NC(=O)[C@H](CC(C)C)NC(=O)[C@H](Cc1ccccc1)NC(=O)[C@H](CC(N)=O)NC(=O)[C@H](C)NC(=O)[C@H](CC(C)C)NC(=O)[C@H](CCCNC(=N)N)NC(=O)[C@H](CCC(N)=O)NC(=O)[C@@H](NC(=O)[C@H](C)NC(=O)[C@@H]1CSSC[C@H](NC(=O)[C@H](CCCCN)NC(=O)[C@@H](N)CCCCNC(=O)CC[C@H](NC(=O)CCCCCCCCCCCCCCCCC(=O)O)C(=O)O)C(=O)N[C@@H](CC(N)=O)C(=O)N[C@@H]([C@@H](C)O)C(=O)N[C@@H](C)C(=O)N[C@@H]([C@@H](C)O)C(=O)N1)[C@@H](C)O)C(C)C)C(=O)N[C@@H](CC(C)C)C(=O)N1CCC[C@H]1C(=O)N1CCC[C@H]1C(=O)N[C@H](C(=O)N[C@@H](CC(N)=O)C(=O)N[C@H](C(=O)NCC(=O)N[C@@H](CO)C(=O)N[C@@H](CC(N)=O)C(=O)N[C@H](C(=O)N[C@@H](Cc1ccc(O)cc1)C(N)=O)[C@@H](C)O)C(C)C)[C@@H](C)O) [Peptide 110 (SEQ ID NO: 110)],0.204,3,0.541
K([γGlu-C18 diacid])KCNTATCATQRLANFLVHSSNHFGPILPPTNVGSETY-NH2 (disulfide 3-8; N-terminus assumed; SMILES CC[C@H](C)[C@H](NC(=O)[C@@H]1CCCN1C(=O)CNC(=O)[C@H](Cc1ccccc1)NC(=O)[C@H](Cc1c[nH]cn1)NC(=O)[C@H](CC(N)=O)NC(=O)[C@H](CO)NC(=O)[C@H](CO)NC(=O)[C@H](Cc1c[nH]cn1)NC(=O)[C@@H](NC(=O)[C@H](CC(C)C)NC(=O)[C@H](Cc1ccccc1)NC(=O)[C@H](CC(N)=O)NC(=O)[C@H](C)NC(=O)[C@H](CC(C)C)NC(=O)[C@H](CCCNC(=N)N)NC(=O)[C@H](CCC(N)=O)NC(=O)[C@@H](NC(=O)[C@H](C)NC(=O)[C@@H]1CSSC[C@H](NC(=O)[C@H](CCCCN)NC(=O)[C@@H](N)CCCCNC(=O)CC[C@H](NC(=O)CCCCCCCCCCCCCCCCC(=O)O)C(=O)O)C(=O)N[C@@H](CC(N)=O)C(=O)N[C@@H]([C@@H](C)O)C(=O)N[C@@H](C)C(=O)N[C@@H]([C@@H](C)O)C(=O)N1)[C@@H](C)O)C(C)C)C(=O)N[C@@H](CC(C)C)C(=O)N1CCC[C@H]1C(=O)N1CCC[C@H]1C(=O)N[C@H](C(=O)N[C@@H](CC(N)=O)C(=O)N[C@H](C(=O)NCC(=O)N[C@@H](CO)C(=O)N[C@@H](CCC(=O)O)C(=O)N[C@H](C(=O)N[C@@H](Cc1ccc(O)cc1)C(N)=O)[C@@H](C)O)C(C)C)[C@@H](C)O) [Peptide 111 (SEQ ID NO: 111)],0.403,5,1.88
K([γGlu-γGlu-C20 diacid])CNTATCATQRLANFLVHSS[Aib]NFPAILSPTNVGSNTY-NH2 (disulfide 2-7; N-terminus assumed; SMILES CC[C@H](C)[C@H](NC(=O)[C@H](C)NC(=O)[C@@H]1CCCN1C(=O)[C@H](Cc1ccccc1)NC(=O)[C@H](CC(N)=O)NC(=O)C(C)(C)NC(=O)[C@H](CO)NC(=O)[C@H](CO)NC(=O)[C@H](Cc1c[nH]cn1)NC(=O)[C@@H](NC(=O)[C@H](CC(C)C)NC(=O)[C@H](Cc1ccccc1)NC(=O)[C@H](CC(N)=O)NC(=O)[C@H](C)NC(=O)[C@H](CC(C)C)NC(=O)[C@H](CCCNC(=N)N)NC(=O)[C@H](CCC(N)=O)NC(=O)[C@@H](NC(=O)[C@H](C)NC(=O)[C@@H]1CSSC[C@H](NC(=O)[C@@H](N)CCCCNC(=O)CC[C@H](NC(=O)CC[C@H](NC(=O)CCCCCCCCCCCCCCCCCCC(=O)O)C(=O)O)C(=O)O)C(=O)N[C@@H](CC(N)=O)C(=O)N[C@@H]([C@@H](C)O)C(=O)N[C@@H](C)C(=O)N[C@@H]([C@@H](C)O)C(=O)N1)[C@@H](C)O)C(C)C)C(=O)N[C@@H](CC(C)C)C(=O)N[C@@H](CO)C(=O)N1CCC[C@H]1C(=O)N[C@H](C(=O)N[C@@H](CC(N)=O)C(=O)N[C@H](C(=O)NCC(=O)N[C@@H](CO)C(=O)N[C@@H](CC(N)=O)C(=O)N[C@H](C(=O)N[C@@H](Cc1ccc(O)cc1)C(N)=O)[C@@H](C)O)C(C)C)[C@@H](C)O) [Peptide 117 (SEQ ID NO: 117)],0.77,4,3.19
K([γGlu-C18 diacid])KCNTATCATQRLANFLVHSSN[Aib]FGPILPPTNVGSNTY-NH2 (disulfide 3-8; N-terminus assumed; SMILES CC[C@H](C)[C@H](NC(=O)[C@@H]1CCCN1C(=O)CNC(=O)[C@H](Cc1ccccc1)NC(=O)C(C)(C)NC(=O)[C@H](CC(N)=O)NC(=O)[C@H](CO)NC(=O)[C@H](CO)NC(=O)[C@H](Cc1c[nH]cn1)NC(=O)[C@@H](NC(=O)[C@H](CC(C)C)NC(=O)[C@H](Cc1ccccc1)NC(=O)[C@H](CC(N)=O)NC(=O)[C@H](C)NC(=O)[C@H](CC(C)C)NC(=O)[C@H](CCCNC(=N)N)NC(=O)[C@H](CCC(N)=O)NC(=O)[C@@H](NC(=O)[C@H](C)NC(=O)[C@@H]1CSSC[C@H](NC(=O)[C@H](CCCCN)NC(=O)[C@@H](N)CCCCNC(=O)CC[C@H](NC(=O)CCCCCCCCCCCCCCCCC(=O)O)C(=O)O)C(=O)N[C@@H](CC(N)=O)C(=O)N[C@@H]([C@@H](C)O)C(=O)N[C@@H](C)C(=O)N[C@@H]([C@@H](C)O)C(=O)N1)[C@@H](C)O)C(C)C)C(=O)N[C@@H](CC(C)C)C(=O)N1CCC[C@H]1C(=O)N1CCC[C@H]1C(=O)N[C@H](C(=O)N[C@@H](CC(N)=O)C(=O)N[C@H](C(=O)NCC(=O)N[C@@H](CO)C(=O)N[C@@H](CC(N)=O)C(=O)N[C@H](C(=O)N[C@@H](Cc1ccc(O)cc1)C(N)=O)[C@@H](C)O)C(C)C)[C@@H](C)O) [Peptide 109 (SEQ ID NO: 109)],0.082,2,0.176

# Next, values leading:
EC50 (cAMP production) [1] [nM],Ratio (EC50 hCTR / EC50 hAMYR3) [1],EC50 (cAMP production) [2] [nM],Binder
0.196,10,2.04,K([γGlu-γGlu-C18 diacid])CNTATCATQRLANFLVHSSNN[αMeF]GPILPPTNVGSNTY-NH2 (disulfide 2-7) [Peptide 13 (SEQ ID NO: 13)]
0.801,8,6.81,K([γGlu-C18 diacid])KCNTATCATQRLANFLVHSSNNFGPI[Aib]PPTNVGSNTY-NH2 (disulfide 3-8; N-terminus assumed; SMILES CC[C@H](C)[C@H](NC(=O)[C@@H]1CCCN1C(=O)CNC(=O)[C@H](Cc1ccccc1)NC(=O)[C@H](CC(N)=O)NC(=O)[C@H](CC(N)=O)NC(=O)[C@H](CO)NC(=O)[C@H](CO)NC(=O)[C@H](Cc1c[nH]cn1)NC(=O)[C@@H](NC(=O)[C@H](CC(C)C)NC(=O)[C@H](Cc1ccccc1)NC(=O)[C@H](CC(N)=O)NC(=O)[C@H](C)NC(=O)[C@H](CC(C)C)NC(=O)[C@H](CCCNC(=N)N)NC(=O)[C@H](CCC(N)=O)NC(=O)[C@@H](NC(=O)[C@H](C)NC(=O)[C@@H]1CSSC[C@H](NC(=O)[C@H](CCCCN)NC(=O)[C@@H](N)CCCCNC(=O)CC[C@H](NC(=O)CCCCCCCCCCCCCCCCC(=O)O)C(=O)O)C(=O)N[C@@H](CC(N)=O)C(=O)N[C@@H]([C@@H](C)O)C(=O)N[C@@H](C)C(=O)N[C@@H]([C@@H](C)O)C(=O)N1)[C@@H](C)O)C(C)C)C(=O)NC(C)(C)C(=O)N1CCC[C@H]1C(=O)N1CCC[C@H]1C(=O)N[C@H](C(=O)N[C@@H](CC(N)=O)C(=O)N[C@H](C(=O)NCC(=O)N[C@@H](CO)C(=O)N[C@@H](CC(N)=O)C(=O)N[C@H](C(=O)N[C@@H](Cc1ccc(O)cc1)C(N)=O)[C@@H](C)O)C(C)C)[C@@H](C)O) [Peptide 108 (SEQ ID NO: 108)]
